The record followed here is publication PMC10410706 (Proceedings of the National Academy of Sciences of the …, 2023).

B1: Smaug 73-278Δ156-196 (Smaug part of the single-chain crystallisation construct) (domain or fragment, Drosophila, UniProt Q23972 73-278, looked up)
chain: LFCEQVTTVTNLFEKWNDCERTVVMYALLKRLRYPSLKFLQYSIDSNLTQNLGTSQTNLSSVVIDINANNPVYLQNLLNAYKTARKEDILHEVLNMLPLLKPGNEEAKLIYLTLIPVAVKDTMQQIVPTELVQQIFSYLLIHPAITSEDRRSLNIWLRHLEDHIQ
B2: Smaug NTD (aa 70-281, His-tag removed) (domain or fragment, Drosophila, UniProt Q23972 70-281, looked up)
chain: SNALFCEQVTTVTNLFEKWNDCERTVVMYALLKRLRYPSLKFLQYSIDSNLTQNLGTSQTNLSSVVIDINANNPVYLQNLLNAYKTFQPCDLLDAMSSSSSDKDSMPCYGSDFQITTSAQCDERKLYARKEDILHEVLNMLPLLKPGNEEAKLIYLTLIPVAVKDTMQQIVPTELVQQIFSYLLIHPAITSEDRRSLNIWLRHLEDHIQAAA
B3: Smoothened 970-1003 synthetic peptide (wild-type) (peptide)
peptide: VPSYGEDELQQAMRLLNAASRQRTEAANEDFGGT

The target of series [1] is B1. Description: crystal structure.
Series [2] deals with T1, Smaug NTD (Drosophila melanogaster, UniProt Q23972 70-281).
T1 sequence: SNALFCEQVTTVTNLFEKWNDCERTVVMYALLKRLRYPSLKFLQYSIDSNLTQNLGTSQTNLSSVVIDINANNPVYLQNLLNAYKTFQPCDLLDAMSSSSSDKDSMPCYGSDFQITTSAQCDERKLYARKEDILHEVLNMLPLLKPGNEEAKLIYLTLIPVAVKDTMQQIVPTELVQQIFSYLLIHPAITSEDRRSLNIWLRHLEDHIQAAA
Nature of the series: EMSA.

Series [3] concerns the molecule itself. Nature of the series: crystal structure.
The target in series [4] is B3. Description: ITC.
The target of series [5] is B2. Description: ITC.

In the case of VPSYGEDELQQAMRLLNAASRQRTEAANEDFGGT [Smo 970-1003 (Smoothened part of the single-chain crystallisation construct)], the binding result in series [1] was “binds”.
Take AGCACCGUAAAGC (ssRNA) [R13C]: the binding result in series [2] is listed as “no binding”.
For B1, the binding result in series [3] is listed as “binds”.
As usually defined, the stoichiometry N is the number of molecules, sites or subunits per partner or assembly. As to B2, in series [4], the “stoichiometry N” value worked out at 1.
What is called Kd is the equilibrium constant for the complex coming apart. Lower therefore signals a tighter complex. In series [5], B3 gave a dissociation constant Kd of 800 nM.
